Assay results reported in US20150005368.

Biological target: ERBB2 (HER2) (Homo sapiens?) (UniProt P04626)
Test: filter
Details: for Kd: same buffer, 37 C

Sequence: ATGTTAGAGTTTGCCTGAGTGCCTCGCAAGGGCGTAACAA [AP001-24 (1194-34, #11 short)]
- selectivity ratio (ERBB2 over EGFR affinity) (6 (n) = NapdU [n positions 2,4,5,10,11,12,16,20,24,35 = modified dU], affinity for ERBB2 relative to EGFR, curve in figure only): > 1000 fold

Sequence: GAGTGACCGTCTGCCTGATGTTAGAGTTTGCCTGAGTGCCTCGCAAGGGCGTAACAACAGCCACACCACCAGCC [clone #11 (1194-2, 9-ER-N-B12_C06)]
- Kd (6 (n) = NapdU [n positions 19,21,22,27,28,29,33,37,41,52 = modified dU], Bmax 0.29): 3.06 nM

Sequence: GAGTGACCGTCTGCCTGGTCTGAACACCGAGATTAGCCGAACGAACGGTATGGACGTCAGCCACACCACCAGCC [clone #33 (9-ER-N-F02_A09)]
- Kd (6 (n) in core = NapdU [n positions 19,21,33,34,49,51,57 = modified dU], Bmax only 0.03): 9.79 nM

Sequence: GAGTGACCGTCTGCCTGGTTAGACTGAACGCACTGAGGGCCGCAGCCTATCTGAAGGCAGCCACACCACCAGCC [clone #10 (9-ER-N-B09_B06)]
- Kd (6 (n) in core = NapdU [n positions 19,20,25,34,48,50,52 = modified dU], Bmax 0.25): 3.71 nM
